Tests used:
[1] = molecular target: T1, inhibin A (InhA), mature heterodimer, unlabelled, P05111;P08476; assay: SPR; conditions: chain shown with the change
T1 chain 1: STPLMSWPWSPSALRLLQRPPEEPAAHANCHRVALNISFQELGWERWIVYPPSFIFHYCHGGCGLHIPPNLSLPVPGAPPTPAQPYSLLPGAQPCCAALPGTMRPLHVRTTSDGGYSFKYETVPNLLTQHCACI
T1 chain 2: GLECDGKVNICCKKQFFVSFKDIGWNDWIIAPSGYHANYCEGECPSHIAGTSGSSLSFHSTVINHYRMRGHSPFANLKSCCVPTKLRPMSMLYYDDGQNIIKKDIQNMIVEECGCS

[2] = molecular target: T2, rat betaglycan ZP-C domain (BG_(ZP-C)), mammalian-expressed; assay: SPR; conditions: chain shown with the change; analyte: BGZP-C; parent: est. 95; read off a plot
T2 chain: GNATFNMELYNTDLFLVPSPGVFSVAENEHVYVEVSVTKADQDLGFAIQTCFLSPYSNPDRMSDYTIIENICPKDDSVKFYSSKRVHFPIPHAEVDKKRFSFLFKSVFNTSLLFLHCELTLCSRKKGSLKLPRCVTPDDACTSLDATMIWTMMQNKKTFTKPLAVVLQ

[3] = molecular target: TGF-β2 (Q57A, K60A, L64A) (human); assay: SPR; BIAcore T200; TGF-β2 WT or TGF-β2 mutants amine-coupled (EDC-NHS) to a CM4 chip, max 400 RU; zfBGO WT or BGZP-C WT injected, 2-fold dilution series 250 - 15.6 nM; 10 mM CHES, 150 mM NaCl, 3 mM EDTA, 0.01% P20, pH 8.0; 100 µl/min; 1:1 kinetic model with drift; three consecutive repeats
[4] = molecular target: TGF-β2 (Y50A, L51A) (human); assay: as above
[5] = molecular target: T3, TGF-β2 (growth factor domain, wild type) (human); assay: as above
T3 sequence (P61812 303-414, looked up): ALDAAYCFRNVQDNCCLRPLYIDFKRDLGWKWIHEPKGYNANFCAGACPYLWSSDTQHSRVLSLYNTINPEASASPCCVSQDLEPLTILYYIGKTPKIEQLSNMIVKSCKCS

[6] = molecular target: T3, TGF-β2 (growth factor domain, wild type) (human); assay: SPR; TGF-β2 immobilised on the chip surface; ratBGO, zfBGO, ratBGO-zfBL or ratBGO-Y248A injected, 2-fold dilution series 500 - 31.3 nM; three consecutive repeats
[7] = surface: InhA, parent: est. 1100 nM, read off a plot

B1: rat betaglycan ZP-C domain (BG_(ZP-C)), mammalian-expressed N82Y (protein)
chain: GNATFNMELYNTDLFLVPSPGVFSVAENEHVYVEVSVTKADQDLGFAIQTCFLSPYSNPDRMSDYTIIEYICPKDDSVKFYSSKRVHFPIPHAEVDKKRFSFLFKSVFNTSLLFLHCELTLCSRKKGSLKLPRCVTPDDACTSLDATMIWTMMQNKKTFTKPLAVVLQ
Kd [1, 7]: 850 nM

B2: rat betaglycan ZP-C domain (BG_(ZP-C)), mammalian-expressed A158E (protein)
chain: GNATFNMELYNTDLFLVPSPGVFSVAENEHVYVEVSVTKADQDLGFAIQTCFLSPYSNPDRMSDYTIIENICPKDDSVKFYSSKRVHFPIPHAEVDKKRFSFLFKSVFNTSLLFLHCELTLCSRKKGSLKLPRCVTPDDACTSLDETMIWTMMQNKKTFTKPLAVVLQ
Kd ([1]; 500 - 15.6 nM, 2-fold dilution series): 1810 nM
Kd [1, 7]: 1800 nM

B3: TGF-β2 homodimer (growth factor domain), unlabelled Y50A; L51A (protein)
chain: ALDAAYCFRNVQDNCCLRPLYIDFKRDLGWKWIHEPKGYNANFCAGACPAAWSSDTQHSRVLSLYNTINPEASASPCCVSQDLEPLTILYYIGKTPKIEQLSNMIVKSCKCS
Kd [2]: 110 nM

B4: rat betaglycan ZP-C domain (BGZP-C), wild type (domain or fragment)
chain: GNATFNMELYNTDLFLVPSPGVFSVAENEHVYVEVSVTKADQDLGFAIQTCFLSPYSNPDRMSDYTIIENICPKDDSVKFYSSKRVHFPIPHAEVDKKRFSFLFKSVFNTSLLFLHCELTLCSRKKGSLKLPRCVTPDDACTSLDATMIWTMMQNKKTFTKPLAVVLQ
Kd [3]: 99 nM
Kd [4]: 113 nM
Kd [5]: 95 nM

B5: rat betaglycan orphan domain (ratBGO), wild type (domain or fragment)
chain: CELSPINASHPVQALMESFTVLSGCASRGTTGLPREVHVLNLRSTDQGPGQRQREVTLHLNPIASVHTHHKPIVFLLNSPQPLVWHLKTERLAAGVPRLFLVSEGSVVQFPSGNFSLTAETEERNFPQENEHLLRWAQKEYGAVTSFTELKIARNIYIKVGEDQVFPPTCNIGKNFLSLNYLAEYLQPKAAEGCVLPSQPHEKEVHIIELITPSSNPYSAFQVDIIVDIRPAQEDPEVVKNLVLILKCKKSVNWVIKSFDVKGNLKVIAPNSIGFGKESERSMTMTKLVRDDIPSTQENLMKWALDNGYRPVTSYTMAPVANRFHLRLEN
Kd [6]: 72 nM

B6: ratBGO-Y248A (domain or fragment)
chain: CELSPINASHPVQALMESFTVLSGCASRGTTGLPREVHVLNLRSTDQGPGQRQREVTLHLNPIASVHTHHKPIVFLLNSPQPLVWHLKTERLAAGVPRLFLVSEGSVVQFPSGNFSLTAETEERNFPQENEHLLRWAQKEYGAVTSFTELKIARNIYIKVGEDQVFPPTCNIGKNFLSLNYLAEYLQPKAAEGCVLPSQPHEKEVHIIELITPSSNPASAFQVDIIVDIRPAQEDPEVVKNLVLILKCKKSVNWVIKSFDVKGNLKVIAPNSIGFGKESERSMTMTKLVRDDIPSTQENLMKWALDNGYRPVTSYTMAPVANRFHLRLEN
Kd [6]: 102 nM

Reference: publication PMC11865472
